Data: patent US20110318339A1 (FABRUS, published 2011)

Legend:
[1] = target: T1, DLL4 Egf2 (amino acid: 1-282) construct (human, UniProt Q9NR61 26-282); experiment: Western blot, non-reducing
T1 construct: also called EGF2 construct; not shown: myc tag (and his tag) added by the PCR primers
Protocol: (§1) Media from transfected CHO cells was collected after 7 days. To enrich for the DLL4 protein, 1 ml aliquots of each sample were batch bound with 50 μl of Talon Resin for 30 minutes. To confirm protein production media samples were tested with mouse anti-c-myc mAb (Genescript; Catalog # A00704). Samples were washed and then boiled with loading dye in the presence or absence of DTT. A gel was run on each of the 2 samples for each condition: with DTT and without DTT. […] For detection goat anti-mouse HRP, goat anti-kappa HRP, and goat anti-lambda HRP were used, respectively.

[2] = target: T2, DLL4 Egf1 (amino acid: 1-251) construct (human, UniProt Q9NR61 26-251); experiment: Western blot, non-reducing
T2 construct: also called EGF1 construct; not shown: myc tag (and his tag) added by the PCR primers
Protocol: as §1

[3] = target: T3, DLL4 DSL (amino acid: 1-217) construct (human, UniProt Q9NR61 26-217); experiment: Western blot, non-reducing
T3 construct: also called DSL construct; not shown: myc tag (and his tag) added by the PCR primers
Protocol: as §1

[4] = target: T4, recombinant human DLL4 (Cat# 1506-D4/CF, R&D Systems) (human, UniProt Q9NR61 27-529); experiment: ELISA, DLL4 coated, Fab 75 nM
T4 construct: Bought protein; also called hDLL4; rHuman DLL4

[5] = target: T4, recombinant human DLL4 (Cat# …); experiment: SPR (ProteOn), hDLL4 amine-coupled on chip
In short: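 SPR on a ProteOn GLM chip, with DLL4 amine-coupled at three surface densities. Fab analytes were run as 3-fold serial dilutions from 1 μM in 10 mM HEPES pH 7.4, 150 mM NaCl, 0.01% Tween-20, 0.1 mg/ml BSA at 25° C. Responses from each surface were globally fit for binding constants.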

[6] = target: T4, recombinant human DLL4 (Cat# …); experiment: ELISA, DLL4 coated, Fab 3.125 nM
Protocol: (§2) The plate was blocked by adding 1% BSA in Tris-buffered Saline Tween (TBST) and incubating for 1 hour at room temperature followed by washing 2 times with 150 μl TBST. A Fab antibody was serially diluted in 1% BSA in PBS. A 50 μl aliquot of each serial dilution was added, in triplicate, to each well and the plate was incubated for 1 hour at room temperature followed by washing 2 times with TBST. 50 μl of either goat anti-human kappa HRP conjugated secondary antibody (Cat # A7164-1 mL, Sigma-Aldrich) or goat anti-human lambda HRP conjugated secondary antibody (Cat # L1645-1 ml, Sigma-Aldrich), diluted 1:1000 in 1% BSA in PBS, was added to each well and the plate was incubated for 30 minutes at room temperature followed by washing 3 times with 200 μl TBST. Finally, 50 μl TMB one-component reagent (Cat # TMBW-1000-01, BioFax) was added and allowed to develop for 2 minutes at room temperature. The reaction was immediately halted by the addition of 50 μl 0.5M H₂SO₄ and the absorbance at 450 nm was measured using an ELISA plate reader.

[7] = target: T4, recombinant human DLL4 (Cat# …); experiment: ELISA, DLL4 coated, Fab 100 nM
[8] = target: T4, recombinant human DLL4 (Cat# …); experiment: ELISA, DLL4 coated, Fab 50 nM
Protocol: as §2

[9] = target: T4, recombinant human DLL4 (Cat# …); experiment: ELISA, DLL4 coated, Fab 50 nM; remark: listed apart in the source
Protocol: as §2

[10] = target: T4, recombinant human DLL4 (Cat# …); experiment: SPR (ProteOn), hDLL4 amine-coupled on chip; 2-site binding, 10% of it by the footnote
Protocol: (§3) In this example, the binding affinities of selected anti-DLL4 Fabs to recombinant human DLL4 (hDLL4, Cat# 1506-D4/CF, R&D Systems) were analyzed using Surface Plasmon Resonance (SPR) (Biosensor Tools, Salt Lake City, Utah). The Fabs analyzed include germline-derived antibodies and germline-modified DLL4 antibodies. Recombinant hDLL4 was immobilized on a SPR chip using amine coupling at three different surface densities. The Fabs were serially diluted 3-fold, with an initial concentration of 1 μM. Binding studies were run on a ProteOn system using a GLM sensor chip in 10 mM HEPES, pH 7.4, 150 mM NaCl, 0.01% Tween-20, and 0.1 mg/ml BSA at 25° C. The response data from each surface was globally fit to determine the binding constants.

[11] = target: T4, recombinant human DLL4 (Cat# …); experiment: SPR (ProteOn), hDLL4 amine-coupled on chip; 2-site binding, 89% of it by the footnote
Protocol: as §3

[12] = target: T4, recombinant human DLL4 (Cat# …); experiment: ELISA, DLL4 coated, Fab 25 nM
In short: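 Binding of Fab to the coated plate is measured by absorbance at 450 nm. Triplicate serial dilutions incubate 1 h at room temperature after 1% BSA/TBST blocking, and HRP-labelled anti-human kappa or lambda antibody (1:1000, 30 min) with 2-min TMB development reports bound Fab.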

[13] = target: T4, recombinant human DLL4 (Cat# …); experiment: ELISA, DLL4 coated, Fab 12.5 nM
Protocol: as §2

[14] = target: T4, recombinant human DLL4 (Cat# …); experiment: ELISA, DLL4 coated, Fab 100 nM; remark: listed apart in the source
Protocol: as §2

[15] = target: T4, recombinant human DLL4 (Cat# …); experiment: ELISA, DLL4 coated, Fab 6.25 nM
Protocol: as §2

binding result [1]	binding result [2]	binding result [3]	ELISA absorbance at 450 nm [4] [A450]	koff [5] [s⁻¹]	kon [5] [M⁻¹ s⁻¹]	ELISA absorbance at 450 nm [6] [A450]	ELISA absorbance at 450 nm [7] [A450]	ELISA absorbance at 450 nm [8] [A450]	ELISA absorbance at 450 nm [9] [A450]	Kd [10] [nM]	Kd [11] [nM]	ELISA absorbance at 450 nm [12] [A450]	ELISA absorbance at 450 nm [13] [A450]	ELISA absorbance at 450 nm [14] [A450]	ELISA absorbance at 450 nm [15] [A450]	Binder
no binding (tested: 20 nM Fab)	no binding (tested: 20 nM Fab)	no binding (tested: 20 nM Fab)														Fab VH5-51_IGHD5-18*01>3_IGHJ4*01 H:KT TRV & V3-4_IGLJ1*01 L:LP S52G (Fab, V domains shown, Fab, lambda light chain; also called Fab H:KT TRV & L:LP S52G) VH: EVQLVQSGAEVKKPGESLKISCKTSGYRFTSYWIVWVRQMPGKGLEWMGIIYPGDSDTRYSPSFQGQVTISADKSISTAYLQWSSLKASDTAMYYCARRKYSYTYDYFDYWGQGTLVTVSS VL: QTVVTQEPSFSVSPGGTVTLTCGLSSGSVSTSYYPSWYQQTPGQAPRTLIYGTNTRSSGVPDRFSGSILGNKAALTITGAQADDESDYYCLLYMGPGISYVFGTGTKVTVL
			0.268	0.0689	444000	0.096	0.259	0.202	0.507	14	155	0.31	0.192	0.686	0.125	Fab VH1-46_IGHD6-6*01_IGHJ1*01 S102A/S103P/S104F/H111F & L6_IGKJ1*01 S28N/S30D/S31H (Fab, V domains shown, Fab made in E. coli: VH on CH1 with His6 and Flag tags (Plasmid A), VL on kappa CL (Plasmid C); also called H: APFF & L: NDH) VH: QVQLVQSGAEVKKPGASVKVSCKASGYTFTSYYMHWVRQAPGQGLEWMGIINPSGGSTSYAQKFQGRVTMTRDTSTSTVYMELSSLRSEDTAVYYCAREEYAPFSAEYFQFWGQGTLVTVSS VL: EIVLTQSPATLSLSPGERATLSCRASQNVDHYLAWYQQKPGQAPRLLIYDASNRATGIPARFSGSGSGTDFTLTISSLEPEDFAVYYCQQRSNWPPWTFGQGTKVEIKR
